PMC4263763, “Crystal Structure of Calcium Binding Protein-5 from Entamoeba histolytica and Its Involvement in Initiation of Phagocytosis of Human Erythrocytes” (PLoS Pathogens, 2014)
Several values for one entry are separate records, joined by “and”; a condition that tells them apart may be missing. Equal values may be shown once. Entries after “also recorded” stand apart in the source; their conditions may differ.

What was measured:
[1] = molecular target: Entamoeba histolytica calcium binding protein-5 (EhCaBP5), recombinant (Entamoeba histolytica); experiment: SPR; EhCaBP5 immobilised on sensor chip up to 500 RU; native and mutated IQ motif peptides as analyte at 25, 50, 75, 100 and 125 mM (so in the source); 25°C
[2] = molecular target: IQ motif peptide of myosin 1B (native) (Entamoeba histolytica); experiment: SPR
[3] = test system: EhCaBP5; experiment: SPR binding of native and mutated IQ motif peptides (analyte) to immobilized EhCaBP5 (model validation); set-up: species or system Entamoeba histolytica; conditions: peptide as analyte, 25°C
Method: To validate EhCaBP5-IQ motif complex model, we obtained commercially synthesized two mutated Myosin 1B IQ motif peptide IQ-M1 A*A*KAWKGYRNRKR (where IQ is mutated to AA) and IQ-M2 IQKAWKGYD*ND*KD* (Where R is mutated to D). The EhCaBP5 was immobilized on sensor chip up to 500 resonance units and native myosin 1B IQ motif peptide and mutated IQ motif peptide were passed as analyte at concentration of […]. The data were recorded at 25°C and data analysis was performed using Biacore […] SPR Kinetics evaluation software.

[4] = test system: EhCaBP5; experiment: SPR binding of EhCaBP5 (analyte) to immobilized myosin IQ motif peptides; set-up: species or system Entamoeba histolytica; conditions: Biacore T200, peptide immobilized (2000 RU, CM4 chip), EhCaBP5 as analyte, pH 7.4
Excerpt: The E. histolytica genome codes for two myosin, myosin I (accession number EAL48894) and myosin II (accession number EAL51645). Myosin I has one IQ motif and myosin II has two IQ motifs. To check the interaction between EhCaBP5 and myosin IQ motifs, we commercially synthesized (obtained) peptides of IQ motif of myosin 1B (unconventional myosin) (IQKAWKGYRNRKR) and second IQ motif of heavy chain myosin (myosin II) ([…]), which is expected to bind to ELC. For the binding study we used Biacore T200 apparatus (Biacore, GE Healthcare) at National Institute of Plant and Genome Research New Delhi, India. A total of 2000 resonance units (RU) of peptides were immobilized on a research grade S series CM4 sensor chip in 10 mM sodium acetate, pH 5.0 according to the manufacturer's amine coupling kit. After peptide immobilization, the surface was blocked with 1 M ethanolamine at pH 8.5, followed by regeneration using 50 mM NaOH. The interaction experiments were performed using buffer containing 10 mM HEPES pH 7.4, 150 mM NaCl and 0.2 mM Calcium chloride. We also performed interaction experiment in absence of Ca^2+ and supplementing 5 mM of EGTA in the above buffer. […] The association kinetics for EhCaBP5 was monitored for 300 seconds and dissociation was monitored for the next 300 seconds.

[5] = ITC; ref [17]; cited from earlier work
Excerpt: Overall, the molecule is divided in two globular lobes, where each lobe has four alpha helices connected by loops. The N-terminal lobe has one EF-hand motif with a calcium ion bound to the loop between two helices. The C-terminal lobe has two small anti-parallel beta strands along with four loops (Fig. 1A). Signature residues of an additional EF-hand motif are found in the C-terminal lobe (residues87 to 98). In the crystal structure these residues form a loop between two helices similar to that of a typical EF-hand but density for Ca^2+ is not observed. Consistent with the crystals structure, ...

[6] = test system: F-actin; experiment: Co-sedimentation assay with F-actin; assay type: binding; conditions: in vitro, pellet fraction containing F-actin
[7] = test system: myosin 1B; experiment: Co-immunoprecipitation of myosin 1B from total cell lysate; assay type: binding, Entamoeba histolytica; conditions: immobilized anti-EhCaBP5 antibody, 800 µg E. histolytica lysate, 6 h at 4°C, with EGTA; western blot
Method: Immunoprecipitation was carried out as described previously. Briefly, CNBr-activated Sepharose-4B beads (Pharmacia) were conjugated with anti-EhCaBP5 antibody. Crude immunoglobulins were collected from the immunized serum using 40% ammonium sulphate and subsequently dialysed in coupling buffer (bicarbonate buffer). Usually, 10 mg immunoglobulin protein was added per gram of CNBr-activated Sepharose-4B beads. The resin was mixed gently for 18 h at 4°C. The conjugated Sepharose beads were incubated with E. histolytica lysate for 6 h at 4°C. The beads were then washed thrice with wash buffer (10 mM Tris-Cl (pH 7.5), 150 mM NaCl, 1 mM imidazole, 1 mM magnesium acetate, 2 mM β-ME and protease inhibitor cocktail). Ca^2+ and EGTA were maintained throughout the process as required. After incubation the beads were washed sequentially with 60 mM Tris-Cl (pH 6.8), 100 mM NaCl and with 60 mM Tris-Cl (pH 6.8). The pellet was suspended in 2× SDS polyacrylamide gel electrophoresis (PAGE) buffer and boiled for 5 min followed by centrifugation for 5 min. The proteins were then analysed by western blotting.

IQ motif peptide of myosin 1B (native)
Kd [1]: 0.64 nM

Entamoeba histolytica calcium binding protein-5 (EhCaBP5), recombinant (natural protein)
Kd [2]: 2.4 nM and 5.4 nM

A*A*KAWKGYRNRKR [IQ-M1, mutated Myosin 1B IQ motif peptide IQ-M1 (where IQ is mutated to AA)]
change in Kd versus native peptide (in words) [3]: could not find any significant change in Kd value

LQACARAFAARKHFS [myosin II IQ motif]
binding to EhCaBP5 (in words) [4]: does not bind

B1: EhCaBP5: calcium binding protein 5 from E. histolytica (accession number EAL46660) (protein)
chain: MQKHNEDLKESFLLFDGDGDGYLTLNEFESLVRVLGVVMETSAIASTYNSNSKVRGMSYELFTSCFSQLKTKSFNKDEIKTAINVLDKDKKGFIPAIELRRILSTIGDNMEQKEITDLFTFMGIDEQGVVKVDDFINQLMTVFK
number of Ca^2+ binding sites [5]: one | co-sedimentation with / binding to F-actin (in words) [6]: No significant amount of EhCaBP5 was observed in the pellet fraction containing F-actin; also recorded: does not bind F-actin | co-precipitation of myosin 1B (in words) [7]: precipitated myosin 1B along with EhCaBP5 even in the presence of EGTA
